# From patent US7166427
# T1: PepTag peptide C1
# T1 chain: PLSRTLSVAAK
# B1: recombinant DESC1 polypeptide expressed as a fusion protein with an amino-terminal His tag (pcDNA4/HisMax) (protein)
# chain: MYRPDVVRARKRVCWEPWVIGLVIFISLIVLAVCIGLTVHYVRYNQKKTYNYYSTLSFTTDKLYAEFGREASNNFTEMSQRLESMVKNAFYKSPLREEFVKSQVIKFSQQKHGVLAHMLLICRFHSTEDPETVDKIVQLVLHEKLQDAVGPPKVDPHSVKIKKINKTETDSYLNHCCGTRRSKTLGQSLRIVGGTEVEEGEWPWQASLQWDGSHRCGATLINATWLVSAAHCFTTYKNPARWTASFGVTIKPSKMKRGLRRIIVHEKYKHPSHDYDISLAELSSPVPYTNAVHRVCLPDASYEFQPGDVMFVTGFGALKNDGYSQNHLRQAQVTLIDATTCNEPQAYNDAITPRMLCAGSLEGKTDACQGDSGGPLVSSDARDIWYLAGIVSWGDECAKPNKPGVYTRVTALRDWITSKTGI
# Target: T1, PepTag peptide C1
protein,measurement,value
B1,"PepTag Protease Assay: proteolysis of dye-linked peptide, agarose gel electrophoresis",demonstrate proteolytic cleavage of C1 peptide by fractions containing DESC1 polypeptide eluted from the ProBond resin
